From article PMC2668526 (Bioorganic & medicinal chemistry, 2008)

Assays:
Test in all cases: purified protein, by the assay type
Conditions in all cases: other: O2 consumption, 5.0 mM ascorbate, pH 6.0, 37 °C
[1] = substrate: CC(C)(C)OC(=O)NCC(=O)O
[2] = substrate: COc1ccc(C(=O)NCC(=O)O)cc1
[3] = substrate: C[C@@H](NC(=O)c1ccccc1)C(=O)O
[4] = substrate: Nc1ccc(C(=O)NCC(=O)O)cc1
[5] = substrate: O=C(O)CNC(=O)/C=C/c1ccco1
[6] = substrate: O=C(O)CNC(=O)CCCCc1ccccc1
[7] = substrate: O=C(O)CNC(=O)CCc1ccccc1
[8] = substrate: O=C(O)CNC(=O)CNC(=O)c1ccc([N+](=O)[O-])cc1
[9] = substrate: O=C(O)CNC(=O)CNC(=O)c1ccccc1
[10] = substrate: O=C(O)CNC(=O)CSc1ccccc1
[11] = substrate: O=C(O)CNC(=O)SCc1ccccc1
[12] = substrate: O=C(O)CNC(=O)c1ccc(Br)cc1
[13] = substrate: O=C(O)CNC(=O)c1ccc(Cl)cc1
[14] = substrate: O=C(O)CNC(=O)c1ccc([N+](=O)[O-])cc1
[15] = substrate: O=C(O)CNC(=O)c1cccc(Cl)c1
[16] = substrate: O=C(O)CNC(=O)c1ccccc1I
[17] = substrate: O=C(O)CNC(=O)c1ccccc1O
[18] = substrate: O=C(O)CNC(=O)c1cccnc1
[19] = substrate: O=C(O)CNC(=O)c1ccco1
[20] = substrate: O=C(O)CNC(=S)CCc1ccccc1

B1: rat PAM (Rattus norvegicus) (protein)
chain: FKETTRSFSNECLGTIGPVTPLDASDFALDIRMPGVTPKESDTYFCMSMRLPVDEEAFVIDFKPRASMDTVHHMLLFGCNMPSSTGSYWFCDEGTCTDKANILYAWARNAPPTRLPKGVGFRVGGETGSKYFVLQVHYGDISAFRDNHKDCSGVSVHLTRVPQPLIAGMYLMMSVDTVIPPGEKVVNADISCQYKMYPMHVFAYRVHTHHLGKVVSGYRVRNGQWTLIGRQNPQLPQAFYPVEHPVDVTFGDILAARCVFTGEGRTEATHIGGTSSDEMCNLYIMYYMEAKYALSFMTCTKNVAPDMFRTIPAEANIPIPVKPDMVMMHGHHKEAENKEKSALMQQPKQGEEEVLEQDFHVEEELDWPGVYLLPGQVSGVALDSKNNLVIFHRGDHVWDGNSFDSKFVYQQRGLGPIEEDTILVIDPNNAEILQSSGKNLFYLPHGLSIDTDGNYWVTDVALHQVFKLDPHSKEGPLLILGRSMQPGSDQNHFCQPTDVAVEPSTGAVFVSDGYCNSRIVQFSPSGKFVTQWGEESSGSSPRPGQFSVPHSLALVPHLDQLCVADRENGRIQCFKTDTKEFVREIKHASFGRNVFAISYIPGFLFAVNGKPYFGDQEPVQGFVMNFSSGEIIDVFKPVRKHFDMPHDIVASEDGTVYIGDAHTNTVWKFTLTEKMEHRSV
[1]
  Km: 3700 ± 200 µM
  kcat: 6.3 ± 0.3 s⁻¹
  kcat/Km: 1700 ± 50 M⁻¹ s⁻¹
[2]
  Km: 820 ± 40 µM
  kcat: 5.3 ± 0.08 s⁻¹
  kcat/Km: 6400 ± 200 M⁻¹ s⁻¹
[3]
  Km: 84000 ± 23000 µM
  kcat: 0.27 ± 0.03 s⁻¹
  kcat/Km: 3.2 ± 0.6 M⁻¹ s⁻¹
[4]
  Km: 2600 ± 200 µM
  kcat: 5.6 ± 0.2 s⁻¹
  kcat/Km: 2200 ± 100 M⁻¹ s⁻¹
[5]
  Km: 1200 ± 100 µM
  kcat: 3.4 ± 0.1 s⁻¹
  kcat/Km: 2800 ± 100 M⁻¹ s⁻¹
[6]
  kcat: 12 ± 0.4 s⁻¹
  kcat/Km: 76000 ± 4000 M⁻¹ s⁻¹
[7]
  Km: 0.94 ± 0.1 0.55 ± 0.039 mM
  kcat: 9.9 ± 0.4 s⁻¹
  kcat/Km: 11000 ± 600 M⁻¹ s⁻¹
[8]
  Km: 110 ± 7 µM
  kcat: 8.7 ± 0.2 s⁻¹
  kcat/Km: 76000 ± 4000 M⁻¹ s⁻¹
[9]
  Km: 78 ± 11 µM
  kcat: 12 ± 0.8 s⁻¹
  kcat/Km: 160000 ± 10000 M⁻¹ s⁻¹
[10]
  Km: 190 ± 20 µM
  kcat: 4.6 ± 0.2 s⁻¹
  kcat/Km: 25000 ± 1000 M⁻¹ s⁻¹
[11]
  Km: 59 ± 7 µM
  kcat: 0.69 ± 0.022 s⁻¹
  kcat/Km: 12000 ± 1400 M⁻¹ s⁻¹
[12]
  Km: 520 ± 60 µM
  kcat/Km: 4900 ± 400 M⁻¹ s⁻¹
[13]
  Km: 620 ± 40 µM
  kcat: 4.1 ± 0.1 s⁻¹
  kcat/Km: 6600 ± 200 M⁻¹ s⁻¹
[14]
  Km: 470 ± 10 µM
  kcat: 4.2 ± 0.04 s⁻¹
  kcat/Km: 8900 ± 200 M⁻¹ s⁻¹
[15]
  Km: 2200 ± 200 µM
  kcat: 7.8 ± 0.3 s⁻¹
  kcat/Km: 3600 ± 200 M⁻¹ s⁻¹
[16]
  Km: 3400 ± 400 µM
  kcat: 3.1 ± 0.1 s⁻¹
  kcat/Km: 910 ± 70 M⁻¹ s⁻¹
[17]
  kcat: 4.9 ± 0.05 s⁻¹
  kcat/Km: 7100 ± 100 M⁻¹ s⁻¹
[18]
  Km: 1900 ± 100 µM
  kcat: 8 ± 0.2 s⁻¹
  kcat/Km: 4200 ± 200 M⁻¹ s⁻¹
[19]
  Km: 2700 ± 100 µM
  kcat: 7.5 ± 0.07 s⁻¹
  kcat/Km: 2800 ± 100 M⁻¹ s⁻¹
[20]
  Km: 0.038 ± 0.02 0.023 ± 0.002 mM
  kcat: 1.6 ± 0.2 s⁻¹
  kcat/Km: 42000 ± 14000 M⁻¹ s⁻¹
